Holding throughout (assay): Competition binding to HLA class II molecule against reference peptide
Holding throughout (parameters): species or system Homme

Assay [1] concerns the target HLA-DR1 (Homo sapiens, UniProt P01903+P01911). To be noted: for activité relative (ratio moyenne IC50 peptide testé / moyenne IC50 peptide de référence): DR1, lower ratio = better affinity. An excerpt:
(§1) Les tableaux 7 et 8 ci-dessous représentent la concentration en peptide compétiteur (nM) (SEQ ID N°9 ou SEQ ID N°10) pour laquelle 50% de la liaison du peptide de référence aux molécules HLA-DRB1 et aux molécules HLADRB3, -DRB4, -DRB5 et HLA-DP4, est inhibée (IC50).
(§2) Pour chacun des tableaux 7 et 8, les résultats sont issus de deux expériences indépendantes. Tableau 7 :
(§3) Les valeurs indiquées correspondent aux IC50 obtenus pour chaque peptide étudié.
(§4) Plus la valeur de l'IC50 est faible, meilleure est l'affinité du peptide pour la molécule HLA étudiée. Ainsi, il est important de noter que les peptides de référence n'ont pas tous la même capacité de liaison selon la molécule HLA considérée. Ces valeurs correspondent aux valeurs standards attendues.
(§5) Le tableau 9 ci-dessous illustre l'activité relative des deux composés peptidiques SEQ ID N°9 et 10 pour les molécules HLA-DR, HLA-DRB et HLA-DP4 étudiées. L'activité relative est calculée à partir des deux tableaux 7 et 8 ci-dessus de la façon suivante : Ratio = (moyenne des valeurs d'IC50 obtenues pour le peptide testé)/(moyenne des valeurs d'IC50 obtenues avec le peptide de référence). Tableau 9 :
(§6) Dans ce tableau 9, l'activité relative est définie par le ratio obtenu entre la moyenne des IC50 calculée avec le peptide compétiteur et la moyenne des IC50 calculée avec le peptide de référence. L'activité relative permet ainsi de comparer les propriétés de liaison du peptide testé à celle du peptide de référence qui correspond au peptide qui lie de façon la plus efficace une molécule HLA donnée. Ainsi, une activité relative de 2 signifie que le peptide testé lie 2 fois moins efficacement la molécule HLA étudiée que le peptide de référence. Ainsi, plus le ratio est faible, meilleure est l'affinité du peptide pour la molécule HLA considérée.

Assay [2] addresses HLA-DR3 (Homo sapiens, UniProt P01903+P01911). The settings on record: for activité relative (ratio moyenne IC50 peptide testé / moyenne IC50 peptide de référence): lower ratio = better affinity; for affinité de liaison (in words): HLA-DR3.
Excerpt: as §1, §2, §3, §4, §5, §6

Assay [3] has as its target HLA-DR15 (Homo sapiens, UniProt P01903+P01911). To be noted: lower ratio = better affinity.
Excerpt: as §1, §2, §3, §4, §5, §6

Assay [4] has as its target HLA-DR11 (Homo sapiens, UniProt P01903+P01911). The settings on record: lower ratio = better affinity.
Excerpt: as §1, §2, §3, §4, §5, §6

Assay [5] deals with HLA-DR4 (Homo sapiens, UniProt P01903+P01911). The settings on record: lower ratio = better affinity.
Excerpt: as §1, §2, §3, §4, §5, §6

In assay [6] the target is HLA-DR7 (Homo sapiens, UniProt P01903+P01911). To be noted: for activité relative (ratio moyenne IC50 peptide testé / moyenne IC50 peptide de référence): DR7, lower ratio = better affinity.
Excerpt: as §1, §2, §3, §4, §5, §6

Assay [7] concerns the target HLA-DR13 (Homo sapiens, UniProt P01903+P01911). To be noted: lower ratio = better affinity.
Excerpt: as §1, §2, §3, §4, §5, §6

The target in assay [8] is HLA-DRB5 (Homo sapiens, UniProt P01903+Q30154). The settings on record: for activité relative (ratio moyenne IC50 peptide testé / moyenne IC50 peptide de référence): lower ratio = better affinity.
Excerpt: as §1, §2
(§7) Comme pour les résultats présentés ci-dessus, le tableau 8 illustre l'ensemble des valeurs d'IC50 obtenues pour les deux peptides testés et leur peptide de référence comme contrôle interne, pour la liaison aux molécules HLA-DRB3, -DRB4, -DRB5 et aux molécules HLA-DP401 et -DP402. Tableau 8 =:
as §5, §6

Assay [9] concerns the target HLA-DRB3 (Homo sapiens, UniProt P01903+P79483). To be noted: for activité relative (ratio moyenne IC50 peptide testé / moyenne IC50 peptide de référence): DRB3, lower ratio = better affinity; for affinité de liaison (in words): HLADRB3.
Excerpt: as §1, §2, §7, §5, §6

The target in assay [10] is HLA-DRB4 (Homo sapiens, UniProt P01903+P13762). The settings on record: lower ratio = better affinity.
Excerpt: as §1, §2, §7, §5, §6

Assay [11] deals with T1, HLA-DP401 (Homo sapiens, UniProt P04440+P20036).
T1 sequence (P04440 30-258): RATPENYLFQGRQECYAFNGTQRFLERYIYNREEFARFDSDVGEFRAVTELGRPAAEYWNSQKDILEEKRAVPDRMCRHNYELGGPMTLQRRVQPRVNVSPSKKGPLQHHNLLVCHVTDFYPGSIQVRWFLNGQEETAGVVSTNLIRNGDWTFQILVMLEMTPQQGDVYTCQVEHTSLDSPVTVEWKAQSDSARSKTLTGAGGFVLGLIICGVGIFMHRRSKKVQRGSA
T1 sequence (P20036 32-260 limits assumed): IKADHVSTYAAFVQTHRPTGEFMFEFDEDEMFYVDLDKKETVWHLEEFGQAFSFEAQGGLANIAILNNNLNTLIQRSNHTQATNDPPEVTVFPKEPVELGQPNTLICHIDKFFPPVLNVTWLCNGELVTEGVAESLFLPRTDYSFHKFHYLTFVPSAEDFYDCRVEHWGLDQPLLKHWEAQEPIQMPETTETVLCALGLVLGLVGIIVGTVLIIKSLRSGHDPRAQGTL
The settings on record: lower ratio = better affinity.
Excerpt: as §1, §2, §7, §5, §6

The target in assay [12] is T2, HLA-DP402 (Homo sapiens, UniProt P04440+P20036, A65V/A84D/A85E).
T2 sequence (P04440 30-258 A65V/A84D/A85E): T1 sequence (P04440 30-258) with A36V, A55D, A56E
T2 sequence (P20036 29-260): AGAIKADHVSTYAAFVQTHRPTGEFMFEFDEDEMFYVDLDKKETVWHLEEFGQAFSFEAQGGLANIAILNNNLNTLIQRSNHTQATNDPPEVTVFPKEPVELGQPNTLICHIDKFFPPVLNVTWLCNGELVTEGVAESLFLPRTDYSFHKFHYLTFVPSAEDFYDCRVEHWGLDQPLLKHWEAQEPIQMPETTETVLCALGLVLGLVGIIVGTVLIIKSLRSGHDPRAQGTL
The settings on record: lower ratio = better affinity.
Excerpt: as §1, §2, §7, §5, §6

Numbering of substitutions follows the chain as printed. Bounds are passed on as bounds.

Consider “EGYFVTDEKTGLVYRDGGVAAASSG (EGYFVTDEKTGLVYRDGGVAAASSG) [SEQ ID N°10]”, for which the “activité relative (ratio moyenne IC50 peptide testé / moyenne IC50 peptide de référence)” value was 271 in assay [1]; 0,2 in [2] (DR3); 1 in assay [3]; 3 in assay [4]; 2 in [5]; 928 in assay [6]. For the same substance, the “activité relative (ratio moyenne IC50 peptide testé / moyenne IC50 peptide de référence)” value in [7] was 18; in assay [8], 688; in assay [9], 5; in [10], over 9535; in [11], 5556; in [12], 2000. Also, the IC50 in assay [2] (DR3, two independent experiments, one line each, read-out: IC50 (concentration en peptide compétiteur pour laquelle 50% de la liaison du peptide de référence est inhibée)) is 35 nM. In addition, the “affinité de liaison (in words)” value in assay [2] and in assay [9] was “bonne affinité de liaison” throughout.
With “TNTLAVLQAFGRAIPELGKKW (TNTLAVLQAFGRAIPELGKKW) [SEQ ID N°9]”, the “activité relative (ratio moyenne IC50 peptide testé / moyenne IC50 peptide de référence)” value was 1 in [1]; over 187 in assay [2] (DR3); 5 in assay [3]; 3 in [4]; 2 in assay [5]; 3 in assay [6]. For the same substance, the “activité relative (ratio moyenne IC50 peptide testé / moyenne IC50 peptide de référence)” value is recorded as 41 in assay [7]; 0,9 in assay [8]; over 274 in [9]; 1331 in assay [10]; over 3727 in assay [11]; over 2222 in [12]. Moreover, the “affinité de liaison (in words)” value is recorded as “affinité de liaison élevée” in [1] (HLA-DR1); “n'est pas actif” in assay [2]; “affinité de liaison élevée” in assay [6] (HLA-DR7); “affinité de liaison élevée” in assay [8]; “n'est pas actif” in assay [9].

(Values after EP2938355B1, “MONOVALENT AND MULTIVALENT LEISHMANIA VACCINES” (VIRBAC S.A., priority 2012, dated 2014).)
